Literature values in patent US12419862B2, “Use of a cathepsin s inhibitor against the formation of anti-drug antibodies” (Hoffmann-La Roche Inc., priority 2018, dated 2025).

Settings: current standard of care in IBD; cited from earlier work

Substance | reported immunogenicity rates
adalimumab | ≤ 26%
infliximab: anti-TNFalpha antibody, known to be highly immunogenic | up to 51%
